Here are results for one protein from patent publication US20090061444A1 (WISCONSIN ALUMNI RESEARCH FOUNDATION, published 2009).

The data set concerns the molecule itself. As to the kind of experiment: size exclusion chromatography (Superose 6), non-denaturing; self-association. The method, then: Size Exclusion Chromatography. Size exclusion chromatography (SEC) was performed by FPLC using a 24 ml Superose 6 (S6) column (GE Healthcare, Pittsburgh, Pa.). The chromoproteins (100 μl of a 5 mg/ml sample) were first purified through the phenyl HP step, dissolved in 30 mM Tris-HCl (pH 8.0) and 200 mM NaCl, and either loaded onto the column as Pr or immediately following saturating irradiation of the sample with red light (630 nm). Absorption spectra were recorded before and after SEC to verify that the chromoproteins remained enriched in the desired states (Pr or Pfr).
SEC has shown that most, if not all, Phys are dimeric with their binding interface(s) involving one or more regions, including the GAF domain in DrBphP, the PAS-GAF-PHY domain in Syn-Cph1, and the C-terminal HK and HK-related regions in microbial and higher plants Phys. […] Whereas the GAF domain alone as Pr behaved as a monomer of 22 kDa, consistent with its calculated molecular mass of 23.3 kDa, the GAF-PHY fragment behaved as a dimer species at 105-kDa, nearly twice the size of its calculated mass of 48.4 kDa (FIG. 23). […] The predicted molecular masses of monomeric SyB-Cph1 (GAF) and SyB-Cph1 (GAF-PHY) polypeptides are 23.3 kDa and 48.4 kDa, respectively, while the apparent molecular masses measured by SEC are 22 and 106 kDa, respectively.
On the technique in general: Size exclusion chromatography separates by hydrodynamic size, large species first.

B1: SyB-Cph1 (GAF) chromoprotein assembled with PCB (other)
chain: MDTETWAAAARPSRDALINRITHQIRQSLELDQILRATVEEVRAFLGTDRVKVYRFDPEGHGTVVAEARGGERLPSLLGLTFPAGDIPEEARRLFRLAQVRVIVDVEAQSRSISQPESWGLSARVPLGEPLQRPVDPCHVHYLKSMGVASSLVVPLMHHQELWGLLVSHHAEPRPYSQEELQVVQLLADQVSIAIAQAELHHHHHH
modifications: phycocyanobilin (PCB) covalently bound at Cys-138
notes: It ran as a monomer on SEC, both as Pr and after saturating red light; also called CYB GAF; BG
For the protein B1, the binding result was “no binding (tested: 100 µl of a 5 mg/ml sample loaded)”.
